Experiments:
[1] = molecular target: T1, c-MET on human target cells (human, UniProt P08581 25-1390); assay: cell-based or functional assay
[2] = molecular target: T1, c-MET on human target cells; assay: cell-based or functional assay; remark: listed apart in the source
[3] = molecular target: T1, c-MET on human target cells; assay: cell-based or functional assay; remark: listed apart in the source
[4] = molecular target: T2, AF647 labeled c-met protein (UniProt P08581 25-932, limits assumed, labeled with AlexaFluor 647 (AF647)); assay: flow cytometry, EC50 relative to parental Affy7 CAR-T cells (Round 2)
T2 construct: Soluble labeled c-met protein titrated on CAR-T cells
T2 sequence (P08581 25-932 limits assumed): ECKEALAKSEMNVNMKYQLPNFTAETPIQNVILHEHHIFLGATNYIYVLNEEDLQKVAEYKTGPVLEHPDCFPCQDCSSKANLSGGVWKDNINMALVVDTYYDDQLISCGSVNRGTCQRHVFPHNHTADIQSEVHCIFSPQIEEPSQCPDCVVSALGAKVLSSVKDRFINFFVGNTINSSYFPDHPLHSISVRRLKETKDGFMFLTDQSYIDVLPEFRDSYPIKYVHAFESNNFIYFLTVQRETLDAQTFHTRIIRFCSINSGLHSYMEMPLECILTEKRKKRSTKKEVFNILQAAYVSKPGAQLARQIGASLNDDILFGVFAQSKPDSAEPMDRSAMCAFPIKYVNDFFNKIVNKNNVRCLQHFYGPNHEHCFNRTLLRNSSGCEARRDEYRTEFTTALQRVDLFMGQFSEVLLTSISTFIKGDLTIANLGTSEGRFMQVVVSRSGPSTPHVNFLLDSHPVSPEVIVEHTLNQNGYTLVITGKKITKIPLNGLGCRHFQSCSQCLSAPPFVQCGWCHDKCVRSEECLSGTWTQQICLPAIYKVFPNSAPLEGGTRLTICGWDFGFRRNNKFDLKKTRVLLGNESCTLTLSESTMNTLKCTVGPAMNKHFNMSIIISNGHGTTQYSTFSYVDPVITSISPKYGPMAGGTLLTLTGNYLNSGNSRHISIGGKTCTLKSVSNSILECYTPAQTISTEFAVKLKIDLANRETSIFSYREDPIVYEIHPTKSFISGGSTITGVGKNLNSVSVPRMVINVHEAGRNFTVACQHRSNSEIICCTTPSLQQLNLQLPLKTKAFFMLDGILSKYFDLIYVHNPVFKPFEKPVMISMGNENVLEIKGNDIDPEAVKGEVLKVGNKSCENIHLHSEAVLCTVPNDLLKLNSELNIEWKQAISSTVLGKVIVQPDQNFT
Experimental: (§1) Binding of labeled c-MET to CAR-T cells expressing the affinity tuned c-MET scFvs was evaluated by transducing lentivirus anti-c-MET CAR particles into human T cells to form c-MET CAR-T cells incubated with AF647-labeled c-MET. […] Following a 48 hr. incubation at 37° C., the culture media was brought up to […] per well and incubated at 37° C. for 10 days.
(§2) Cells were stained on ice for 30 mins and then washed with PBS. After washing, residually bound protein on CAR T cells were measured on a flow cytometer (Beckman, CytoFLEX®). The resulting binding data was fit using a non-linear regression analysis on GraphPad Prism to calculate half effective dose concentration (EC₅₀) values. The results of this analysis are shown in FIGS. 2-5 and Tables 2-5 below.

[5] = molecular target: T2, AF647 labeled c-met protein; assay: flow cytometry, AF647-labeled c-met protein titrated on CAR-T cells (Round 2)
Experimental: as §1, §2

[6] = molecular target: T1, c-MET on human target cells; assay: cell-based or functional assay; remark: listed apart in the source
[7] = molecular target: T1, c-MET on human target cells; assay: cell-based or functional assay; remark: listed apart in the source
[8] = molecular target: T1, c-MET on human target cells; assay: cell-based or functional assay; remark: listed apart in the source
[9] = molecular target: T1, c-MET on human target cells; assay: cell-based or functional assay; remark: listed apart in the source

T1 sequence (P08581 25-1390): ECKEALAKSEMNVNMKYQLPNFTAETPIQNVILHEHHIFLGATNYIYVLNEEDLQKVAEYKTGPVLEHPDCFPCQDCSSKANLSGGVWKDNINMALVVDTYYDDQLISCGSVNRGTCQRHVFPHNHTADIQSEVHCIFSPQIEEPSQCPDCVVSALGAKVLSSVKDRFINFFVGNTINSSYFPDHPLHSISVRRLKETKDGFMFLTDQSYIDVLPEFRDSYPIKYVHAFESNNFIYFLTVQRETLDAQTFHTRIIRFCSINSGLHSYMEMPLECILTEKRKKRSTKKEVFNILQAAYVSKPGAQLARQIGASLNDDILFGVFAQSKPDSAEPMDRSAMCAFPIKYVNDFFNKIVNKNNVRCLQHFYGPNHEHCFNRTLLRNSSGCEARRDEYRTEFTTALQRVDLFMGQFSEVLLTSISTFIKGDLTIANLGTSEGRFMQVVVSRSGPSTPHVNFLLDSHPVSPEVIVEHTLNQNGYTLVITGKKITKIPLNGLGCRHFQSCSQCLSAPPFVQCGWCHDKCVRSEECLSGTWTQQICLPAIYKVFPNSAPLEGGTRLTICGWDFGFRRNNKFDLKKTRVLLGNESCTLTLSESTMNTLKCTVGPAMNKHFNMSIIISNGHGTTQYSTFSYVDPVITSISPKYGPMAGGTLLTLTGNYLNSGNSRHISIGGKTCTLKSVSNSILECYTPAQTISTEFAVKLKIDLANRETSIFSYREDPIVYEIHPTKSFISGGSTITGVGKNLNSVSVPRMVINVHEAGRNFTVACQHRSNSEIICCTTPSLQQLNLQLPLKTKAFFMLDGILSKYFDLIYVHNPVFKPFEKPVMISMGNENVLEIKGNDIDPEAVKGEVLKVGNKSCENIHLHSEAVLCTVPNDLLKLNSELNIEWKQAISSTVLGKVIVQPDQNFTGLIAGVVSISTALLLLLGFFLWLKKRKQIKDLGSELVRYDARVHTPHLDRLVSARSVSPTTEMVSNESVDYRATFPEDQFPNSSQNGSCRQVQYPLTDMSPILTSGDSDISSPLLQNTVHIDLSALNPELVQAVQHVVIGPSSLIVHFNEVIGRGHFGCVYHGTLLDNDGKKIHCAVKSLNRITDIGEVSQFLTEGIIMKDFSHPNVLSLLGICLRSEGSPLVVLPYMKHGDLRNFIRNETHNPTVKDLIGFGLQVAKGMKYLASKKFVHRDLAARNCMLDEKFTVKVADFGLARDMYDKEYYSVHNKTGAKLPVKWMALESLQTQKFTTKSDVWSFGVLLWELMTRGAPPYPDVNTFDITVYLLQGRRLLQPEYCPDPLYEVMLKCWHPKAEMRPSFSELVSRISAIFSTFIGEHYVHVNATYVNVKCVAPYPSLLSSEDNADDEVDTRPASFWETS

| Fold Change [4] [fold] | EC50 [5] [µM] | Binder | cytotoxicity, Normal Human Liver Cells, 8 hrs [1] | cytotoxicity, Normal Human Liver Cells, 16 hrs [1] | cytotoxicity, Normal Human Liver Cells, 24 hrs [1] | cytotoxicity, Normal Human Liver Cells, 32 hrs [1] | cytotoxicity, Normal Human Liver Cells, 40 hrs [1] | cytotoxicity, Normal Human Liver Cells, 48 hrs [1] | cytotoxicity, Normal Human Lung Cells, 8 hrs [2] | cytotoxicity, Normal Human Lung Cells, 16 hrs [2] | cytotoxicity, Normal Human Lung Cells, 24 hrs [2] | cytotoxicity, Normal Human Lung Cells, 32 hrs [2] | cytotoxicity, Normal Human Lung Cells, 40 hrs [2] | cytotoxicity, Normal Human Lung Cells, 48 hrs [2] | percent cytotoxicity, SNU638, 24 hrs [3] [%] | percent cytotoxicity, SNU638, 48 hrs [3] [%] | percent cytotoxicity, SNU638, 72 hrs [3] [%] | percent cytotoxicity, Hs746T, 24 hrs [6] [%] | percent cytotoxicity, Hs746T, 48 hrs [6] [%] | percent cytotoxicity, Hs746T, 72 hrs [6] [%] | further results |
| --- | --- | --- | --- | --- | --- | --- | --- | --- | --- | --- | --- | --- | --- | --- | --- | --- | --- | --- | --- | --- | --- |
| 6190 | 619 | Affy7-Y6L CAR (other, CAR on transduced human T cells; Y to L in HC CDR3; P2A remnant not included; also called MycT-Affy7-Y6L CAR-SSTR2) GSEQKLISEEDLGSQVQLQQSGPELVRPGASVKMSCRASGYTFTSYWLHWVKQRPGQGLEWIGMIDPSNSDTRFNPNFKDKATLNVDRSSNTAYMLLSSLTSADSAVYYCATLGSYVSPLDYWGQGTSVTVSSGGGGSGGGGSGGGGSDIMMSQSPSSLTVSVGEKVTVSCKSSQSLLYTSSQKNYLAWYQQKPGQSPKLLIYWASTRESGVPDRFTGSGSGTDFTLTITSVKADDLAVYYCQQYYAYPWTFGGGTKLEIKRASTTTPAPRPPTPAPTIASQPLSLRPEACRPAAGGAVHTRGLDFACDFWVLVVVGGVLACYSLLVTVAFIIFWVRSKRSRLLHSDYMNMTPRRPGPTRKHYQPYAPPRDFAAYRSLRVKFSRSADAPAYQQGQNQLYNELNLGRREEYDVLDKRRGRDPEMGGKPRRKNPQEGLYNELQKDKMAEAYSEIGMKGERRRGKGHDGLYQGLSTATKDTYDALHMQALPPR | 6.1 | 2.3 | 2.5 | 1.1 | 0 | 3.2 | 21.1 | 23.6 | 22.8 | 25.4 | 25.9 | 30.1 | 66.9 | 84.5 | 93.5 | 1.6 | 42.9 | 64.5 | cytotoxicity, Normal Human Kidney Cells, 8 hrs [7]: 11.7; cytotoxicity, Normal Human Kidney Cells, 16 hrs [7]: 12.9; cytotoxicity, Normal Human Kidney Cells, 24 hrs [7]: 14.8; cytotoxicity, Normal Human Kidney Cells, 32 hrs [7]: 16.2; cytotoxicity, Normal Human Kidney Cells, 40 hrs [7]: 17.1; cytotoxicity, Normal Human Kidney Cells, 48 hrs [7]: 21.4; cytotoxicity, Normal Human Colon Cells, 8 hrs [8]: 12.1; cytotoxicity, Normal Human Colon Cells, 16 hrs [8]: 16.4; cytotoxicity, Normal Human Colon Cells, 24 hrs [8]: 13.6; cytotoxicity, Normal Human Colon Cells, 32 hrs [8]: 19; cytotoxicity, Normal Human Colon Cells, 40 hrs [8]: 20; cytotoxicity, Normal Human Colon Cells, 48 hrs [8]: 17.2; percent cytotoxicity, H1993, 24 hrs [9]: 12.8%; percent cytotoxicity, H1993, 48 hrs [9]: 42.6%; percent cytotoxicity, H1993, 72 hrs [9]: 71.2% |
| 172 | 17.2 | Affy7-Y6M CAR (other, CAR on transduced human T cells; Y to M in HC CDR3; P2A remnant not included; also called MycT-Affy7-Y6M CAR-SSTR2) GSEQKLISEEDLGSQVQLQQSGPELVRPGASVKMSCRASGYTFTSYWLHWVKQRPGQGLEWIGMIDPSNSDTRFNPNFKDKATLNVDRSSNTAYMLLSSLTSADSAVYYCATMGSYVSPLDYWGQGTSVTVSSGGGGSGGGGSGGGGSDIMMSQSPSSLTVSVGEKVTVSCKSSQSLLYTSSQKNYLAWYQQKPGQSPKLLIYWASTRESGVPDRFTGSGSGTDFTLTITSVKADDLAVYYCQQYYAYPWTFGGGTKLEIKRASTTTPAPRPPTPAPTIASQPLSLRPEACRPAAGGAVHTRGLDFACDFWVLVVVGGVLACYSLLVTVAFIIFWVRSKRSRLLHSDYMNMTPRRPGPTRKHYQPYAPPRDFAAYRSLRVKFSRSADAPAYQQGQNQLYNELNLGRREEYDVLDKRRGRDPEMGGKPRRKNPQEGLYNELQKDKMAEAYSEIGMKGERRRGKGHDGLYQGLSTATKDTYDALHMQALPPR | 7.2 | 6.2 | 9 | 10.9 | 11.3 | 10 | 9.9 | 9.7 | 6.3 | 6.9 | 9.5 | 13.8 | 61.2 | 77.5 | 90.6 | 47.6 | 87 | 96.4 | cytotoxicity, Normal Human Kidney Cells, 8 hrs [7]: 8.8; cytotoxicity, Normal Human Kidney Cells, 16 hrs [7]: 10; cytotoxicity, Normal Human Kidney Cells, 24 hrs [7]: 12; cytotoxicity, Normal Human Kidney Cells, 32 hrs [7]: 13.3; cytotoxicity, Normal Human Kidney Cells, 40 hrs [7]: 15.9; cytotoxicity, Normal Human Kidney Cells, 48 hrs [7]: 19.7; cytotoxicity, Normal Human Colon Cells, 8 hrs [8]: 1.4; cytotoxicity, Normal Human Colon Cells, 16 hrs [8]: 1.7; cytotoxicity, Normal Human Colon Cells, 24 hrs [8]: 1.4; cytotoxicity, Normal Human Colon Cells, 32 hrs [8]: 7.1; cytotoxicity, Normal Human Colon Cells, 40 hrs [8]: 1.8; cytotoxicity, Normal Human Colon Cells, 48 hrs [8]: 3.6; percent cytotoxicity, H1993, 24 hrs [9]: 21.3%; percent cytotoxicity, H1993, 48 hrs [9]: 70.5%; percent cytotoxicity, H1993, 72 hrs [9]: 89.6% |
| 53 | 5.3 | Affy7-Y6V CAR (other, CAR on transduced human T cells; Y to V in HC CDR3; P2A remnant not included; also called MycT-Affy7-Y6V CAR-SSTR2) GSEQKLISEEDLGSQVQLQQSGPELVRPGASVKMSCRASGYTFTSYWLHWVKQRPGQGLEWIGMIDPSNSDTRFNPNFKDKATLNVDRSSNTAYMLLSSLTSADSAVYYCATVGSYVSPLDYWGQGTSVTVSSGGGGSGGGGSGGGGSDIMMSQSPSSLTVSVGEKVTVSCKSSQSLLYTSSQKNYLAWYQQKPGQSPKLLIYWASTRESGVPDRFTGSGSGTDFTLTITSVKADDLAVYYCQQYYAYPWTFGGGTKLEIKRASTTTPAPRPPTPAPTIASQPLSLRPEACRPAAGGAVHTRGLDFACDFWVLVVVGGVLACYSLLVTVAFIIFWVRSKRSRLLHSDYMNMTPRRPGPTRKHYQPYAPPRDFAAYRSLRVKFSRSADAPAYQQGQNQLYNELNLGRREEYDVLDKRRGRDPEMGGKPRRKNPQEGLYNELQKDKMAEAYSEIGMKGERRRGKGHDGLYQGLSTATKDTYDALHMQALPPR | 6.5 | 3.9 | 5.5 | 8.7 | 10.7 | 10.8 | 18.2 | 18 | 15.4 | 17.9 | 16.7 | 21.5 | 68.1 | 81.9 | 93.2 | 65 | 94.8 | 98.2 | cytotoxicity, Normal Human Kidney Cells, 8 hrs [7]: 9.3; cytotoxicity, Normal Human Kidney Cells, 16 hrs [7]: 9.7; cytotoxicity, Normal Human Kidney Cells, 24 hrs [7]: 10.6; cytotoxicity, Normal Human Kidney Cells, 32 hrs [7]: 10.3; cytotoxicity, Normal Human Kidney Cells, 40 hrs [7]: 11; cytotoxicity, Normal Human Kidney Cells, 48 hrs [7]: 14.8; cytotoxicity, Normal Human Colon Cells, 8 hrs [8]: 9.4; cytotoxicity, Normal Human Colon Cells, 16 hrs [8]: 13.5; cytotoxicity, Normal Human Colon Cells, 24 hrs [8]: 14; cytotoxicity, Normal Human Colon Cells, 32 hrs [8]: 18.2; cytotoxicity, Normal Human Colon Cells, 40 hrs [8]: 20.3; cytotoxicity, Normal Human Colon Cells, 48 hrs [8]: 22.2; percent cytotoxicity, H1993, 24 hrs [9]: 40%; percent cytotoxicity, H1993, 48 hrs [9]: 84.2%; percent cytotoxicity, H1993, 72 hrs [9]: 93.8% |
